Assay results as given in article PMC11533990.

Molecular target: Full-length wild-type (WT) OaPAC, photoactivated adenylate cyclase from Oscillatoria acuminata (Oscillatoria acuminata)
Test: crystal structure; serial femtosecond crystallography (SFX) at the European XFEL, room temperature (294 K), microcrystals grown in 0.06 M divalents (MgCl2/CaCl2), 0.1 M Tris-Bicine pH 8.5, 30% PEG 550 MME/PEG 20 000; space group P2(1)2(1)2, one monomer in the asymmetric unit, dimer by crystal symmetry; 1.75 A

- stoichiometry N: 2
Substance: Full-length wild-type (WT) OaPAC, photoactivated adenylate cyclase from Oscillatoria acuminata (enzyme)
